Reference: the RNAGym collection of RNA variant scans (doi:10.1073/pnas.2313332121)

B1: TPR t1 (parent)
chain: GACCAAUCUGCCCUCAGAGCUCGAGAACAUCUUCGGAUGCAGAGGAGGCAGGCUUCGGUGGCGCGAUAGCGCCAACGUCCUCAACCUCCAAUGCAUCCCACCACAUGAUGAUGCCUGAAGAGCCUUGGUUUUUUG

Variants of: B1
Assay: polymerase ribozyme fitness, log enrichment relative to wild type (log ratio); higher = more active; in vitro selection for triplet polymerase activity
Outline: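 Input and output libraries were sequenced on Illumina after a single in vitro selection round, run in triplicate on PCR-built, transcribed mutant libraries of each subunit of a heterodimeric triplet polymerase ribozyme. Selection annealed libraries to a biotinylated primer, the partner subunit and triplets, incubated them frozen at −7 °C, then gel-excised extended constructs for streptavidin-bead capture and RT-PCR. Genotypes with ≥10 input reads and ≥1 read per output were kept. Fitness is the logarithm, taken in base 2, of genotype enrichment divided by wild-type enrichment, using inverse-variance-weighted replicate averages.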

Compared with C11G C70G C123U, C11A G60C is lower in “polymerase ribozyme fitness (log ratio)” value: -0.504 for the first, -1.7 for the second.

Compared with C11G G39A G60C, C11G A18U G42C C89A is lower in “polymerase ribozyme fitness (log ratio)” value: -0.748 for the first, -0.965 for the second.

First: C11G G47U
Second: C11G G47A
The “polymerase ribozyme fitness (log ratio)” value of the first is higher: -0.345 for the first, -0.824 for the second.

Going from C11G C13G A50C G110C to C11G C56G C79U, the “polymerase ribozyme fitness (log ratio)” value rises from -5.28 to -0.259.

Compared with C11G C20A C53G U132A, C11G G19A G47C G48A is lower in “polymerase ribozyme fitness (log ratio)” value: -2.13 for the first, -3.86 for the second.

First: C11G C34U C86G A119U
Second: C11G A66G C114U C124G
The “polymerase ribozyme fitness (log ratio)” value of the first is lower: -5.27 for the first, -3.83 for the second.

C11G G48U G61A C73A A90G and C11G G51A C72A are the same in “polymerase ribozyme fitness (log ratio)” value: -2.19 for the first, -2.19 for the second.

Going from C11G A27C G48A C94G to C11G C12G G48U G58U G60U C85A U106G, the “polymerase ribozyme fitness (log ratio)” value falls from -4.21 to -4.78.

Compared with C11A G36U G77C, C11A G69U C94U U130A is higher in “polymerase ribozyme fitness (log ratio)” value: -3.38 for the first, -1.6 for the second.

Compared with C11G A16G G60A C64U G110A A118G, C11G G17U A50U G71U C85A U87C is higher in “polymerase ribozyme fitness (log ratio)” value: -6.79 for the first, -5.37 for the second.

Compared with C11G A27U G47C A83U, C11A G17C U55C C88U U131G is lower in “polymerase ribozyme fitness (log ratio)” value: -3.57 for the first, -5.05 for the second.

First: C11G G52A C56A
Second: C11A U116G
The “polymerase ribozyme fitness (log ratio)” value of the first is higher: -0.203 for the first, -4.36 for the second.

Compared with C11G A24G C40U A90G U131A, C11G C40A is higher in “polymerase ribozyme fitness (log ratio)” value: -2.57 for the first, -1.54 for the second.

Compared with C11A C31U C40U G47C C62U G107A, C11G C20G C49A G117C is lower in “polymerase ribozyme fitness (log ratio)” value: -4.34 for the first, -5.23 for the second.

First: C11A C40U G69U A83G G117U G127C U133G
Second: C11A G77A C82G
The “polymerase ribozyme fitness (log ratio)” value of the first is lower: -4.24 for the first, -1.88 for the second.

Compared with C11G G39A C124A, C11G G39C A74U C115U is lower in “polymerase ribozyme fitness (log ratio)” value: 1.48 for the first, -2.3 for the second.

C11A C40U C49U C56A C123G U129A and C11G A50C C72A U92G C114A G122C U131C are within 0.2 log units of each other in “polymerase ribozyme fitness (log ratio)” value: -3.2 for the first, -3.27 for the second.

Going from C11A C72G to C11G A50U G93U G113U, the “polymerase ribozyme fitness (log ratio)” value falls from -1.14 to -4.55.

First: C11G A29G C49G G93U
Second: C11G A37U G42U
The “polymerase ribozyme fitness (log ratio)” value of the first is lower: -3.07 for the first, -0.864 for the second.

First: C11G C20U G63A
Second: C11A C49G U129C
The “polymerase ribozyme fitness (log ratio)” value of the first is lower: -2.21 for the first, -2.01 for the second.

First: C11A C62U C94A
Second: C11G A37U G71A C79A
The “polymerase ribozyme fitness (log ratio)” value of the first is lower: -2.43 for the first, -1.37 for the second.

First: C11A C56A A100C
Second: C11A G71A
The “polymerase ribozyme fitness (log ratio)” value of the first is lower: -3.86 for the first, -1.67 for the second.

Going from C11A G71U to C11A G63U, the “polymerase ribozyme fitness (log ratio)” value falls from -1.08 to -1.77.

Going from C11A C53G G60C G77C C86G to C11G C40A G122A G127U, the “polymerase ribozyme fitness (log ratio)” value rises from -4.21 to -1.57.

First: C11G C22U G44U
Second: C11G C40U U87G C115U
The “polymerase ribozyme fitness (log ratio)” value of the first is lower: -4.93 for the first, -0.239 for the second.

First: C11G G69A C70A
Second: C11A C49G G63C C79A
The “polymerase ribozyme fitness (log ratio)” value of the first is higher: -4.98 for the first, -6.2 for the second.

Compared with C11G G23A C76U, C11G G19C C73G is higher in “polymerase ribozyme fitness (log ratio)” value: -6.14 for the first, -3.75 for the second.

C11A G42A C86U U96A and C11G G51C are within 0.2 log units of each other in “polymerase ribozyme fitness (log ratio)” value: -4.6 for the first, -4.46 for the second.

Going from C11G G77U C80U G113U to C11G C40U G47C C56A U92A, the “polymerase ribozyme fitness (log ratio)” value falls from -3.12 to -6.34.

First: C11G G60A C70U
Second: C11G C12A C64U U96C A108G
The “polymerase ribozyme fitness (log ratio)” value of the first is higher: -0.917 for the first, -2.32 for the second.

Going from C11A C115G to C11G C80U, the “polymerase ribozyme fitness (log ratio)” value rises from -3.42 to -0.0495.

Compared with C11G G63A A111G, C11A G52C U54C C94U G120C is higher in “polymerase ribozyme fitness (log ratio)” value: -0.361 for the first, 0.0193 for the second.

Going from C11A G45A G61A to C11A C64U, the “polymerase ribozyme fitness (log ratio)” value rises from -1.68 to -1.04.

Going from C11A U14A A18U U55C to C11A C22G, the “polymerase ribozyme fitness (log ratio)” value rises from -4.98 to -4.15.

First: C11G G44C A66G A83G C114A U133A
Second: C11G G35A
The “polymerase ribozyme fitness (log ratio)” value of the first is lower: -5.39 for the first, -2.51 for the second.

Compared with C11A U14G G63A G71A A83G A91C C114U, C11G C97A C102U is higher in “polymerase ribozyme fitness (log ratio)” value: -5.74 for the first, -4.77 for the second.

Compared with C11G G71A C89U G110U, C11A C53U C85A is higher in “polymerase ribozyme fitness (log ratio)” value: -3.53 for the first, -3.03 for the second.

Compared with C11A C53U C56A G63A C76G, C11G G36A is higher in “polymerase ribozyme fitness (log ratio)” value: -3.79 for the first, 0.396 for the second.

Going from C11A G60U A74U C88A to C11G C73A, the “polymerase ribozyme fitness (log ratio)” value rises from -2.8 to 0.279.

Going from C11G G61C U78C U126A to C11A G48A A50U C70U C97G G122A, the “polymerase ribozyme fitness (log ratio)” value falls from -4.7 to -5.3.

First: C11A G52A A68G C101U G117C
Second: C11G C53U C80U C88A U112C
The “polymerase ribozyme fitness (log ratio)” value of the first is lower: -7.38 for the first, 0.738 for the second.

Compared with C11A U33G G69U U106A, C11G G19A C56U C73U is higher in “polymerase ribozyme fitness (log ratio)” value: -2.62 for the first, -2.04 for the second.
